Tests used:
[1] = biological target: T1, ADI-48576; test: SPR Carterra, yeast anti-ID
T1 construct: pH-dependent anti-CD3 antibody made in CHO cells
Experimental: (§1) Kinetic analysis was conducted at 25° C. in an HBSTE running buffer system (Carterra Cat #3630) using a Carterra LSA (Carterra USA, Salt Lake City, UT). The sample compartment was maintained at 20° C. for the duration of each experiment.
(§2) For antibody capture experiments, a goat anti-human Fc antibody (Jackson ImmunoResearch) was covalently coupled to an HC30M sensor chip surface via standard amine coupling (1:1 EDC:NHS) and then blocked with ethanolamine (1.0 M, pH 8.5). Covalent coupling steps were performed in 25 mM MES buffer (Carterra, Cat #3625) plus 0.05% Tween20. The anti-CD3 antibodies (100 nM in running buffer) were flowed over discrete regions of interest on the chip surface for 5 minutes. […] Dissociation of the anti-idiotype antibodies was monitored for 300s. Several blank buffer samples were injected over the entire chip surface at the start of each non-regenerative kinetic cycle. The preceding blank buffer injection was used for blank surface subtraction. At the end of each non-regenerative kinetic cycle, all surfaces were regenerated via two 30s injections of 10 mM glycine, pH 1.7.
(§3) For data processing and fitting, sensorgrams were double reference subtracted with a baseline drift correction of 4 RU. Sensorgrams were y-aligned and baseline corrected, filtered and cropped to include only the association and dissociation steps. Data was fitted to a 1:1 binding model using Carterra Kinetics Data Analysis software version 1.7.1.3055.

[2] = biological target: T2, CTL-62228; test: SPR Carterra, yeast anti-ID
T2 construct: also called glofitamab
Experimental: as §1, §2, §3

[3] = biological target: T3, CTL-62240; test: SPR Carterra, yeast anti-ID
T3 construct: also called ONO-4685
T3 sequence (VH, as listed by the source, chain 1 of 2): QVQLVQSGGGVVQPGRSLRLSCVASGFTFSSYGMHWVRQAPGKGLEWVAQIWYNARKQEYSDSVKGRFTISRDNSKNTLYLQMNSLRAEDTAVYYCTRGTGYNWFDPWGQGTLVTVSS
T3 sequence (VL, as listed by the source, chain 2 of 2): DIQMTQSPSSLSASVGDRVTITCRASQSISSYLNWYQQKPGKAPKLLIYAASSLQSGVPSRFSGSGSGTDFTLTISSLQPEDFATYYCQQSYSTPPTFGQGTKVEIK
Experimental: as §1, §2, §3

[4] = biological target: T4, CTL-62227; test: SPR Carterra, yeast anti-ID
T4 construct: also called odronextamab
T4 sequence (VH, as listed by the source, chain 1 of 2): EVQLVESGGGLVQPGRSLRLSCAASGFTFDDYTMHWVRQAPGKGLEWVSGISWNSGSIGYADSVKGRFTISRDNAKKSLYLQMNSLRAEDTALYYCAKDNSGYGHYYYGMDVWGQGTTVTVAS
T4 sequence (VL, as listed by the source, chain 2 of 2): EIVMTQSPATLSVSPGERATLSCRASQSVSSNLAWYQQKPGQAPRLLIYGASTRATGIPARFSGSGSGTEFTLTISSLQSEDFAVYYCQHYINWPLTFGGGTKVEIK
Experimental: as §1, §2, §3

[5] = biological target: T5, ADI-22523 Fab; test: BLI; tip anti-ID IgG, solution ADI-22523 Fab
T5 construct: anti-CD3 Fab by papain digestion of the IgG
Experimental: (§4) ForteBio affinity measurements were performed generally as previously described (Estep et al., MAbs. 2013 5(2):270-8). Briefly, ForteBio affinity measurements were performed by loading antibody IgG or Fabs on-line onto AHC sensors. Sensors were equilibrated off-line in assay buffer for 30 minutes and then monitored on-line for 60 seconds for baseline establishment. For avid binding measurement, sensors with loaded antibodies were exposed to IgG or Fab solutions for 3 minutes, afterwards they were transferred to assay buffer for 3 minutes for off-rate measurement. Kinetics data were fit using a 1:1 binding model in the data analysis software provided by ForteBio to obtain equilibrium dissociation constant (KD=koff/kₒₙ) values. In each column, tip-immobilized antibodies are listed first and solution antibodies second.

[6] = biological target: T6, ADI-26912; test: SPR Carterra avidity, yeast anti-ID
T6 construct: anti-CD3 antibody made in CHO cells, captured by anti-human Fc
Experimental: as §1, §2, §3

[7] = biological target: T7, ADI-67445; test: SPR Carterra avidity, yeast anti-ID
T7 construct: anti-CD3 antibody made in CHO cells, captured by anti-human Fc
T7 sequence (VH, as listed by the source limits assumed, chain 1 of 2): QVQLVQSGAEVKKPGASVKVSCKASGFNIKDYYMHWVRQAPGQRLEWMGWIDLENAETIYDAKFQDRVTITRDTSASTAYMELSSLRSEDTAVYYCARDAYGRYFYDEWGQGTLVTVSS
T7 sequence (VL, as listed by the source limits assumed, chain 2 of 2): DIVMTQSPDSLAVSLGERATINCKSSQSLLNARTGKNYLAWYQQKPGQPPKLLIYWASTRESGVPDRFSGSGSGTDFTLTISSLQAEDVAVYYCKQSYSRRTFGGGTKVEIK
Experimental: as §1, §2, §3

[8] = biological target: T8, ADI-76357; test: SPR Carterra avidity, yeast anti-ID
T8 construct: anti-CD3 antibody made in CHO cells, captured by anti-human Fc
Experimental: as §1, §2, §3

[9] = biological target: T9, ADI-70327; test: SPR Carterra avidity, yeast anti-ID
T9 construct: anti-CD3 antibody made in CHO cells, captured by anti-human Fc
T9 sequence (VH, as listed by the source limits assumed, chain 1 of 2): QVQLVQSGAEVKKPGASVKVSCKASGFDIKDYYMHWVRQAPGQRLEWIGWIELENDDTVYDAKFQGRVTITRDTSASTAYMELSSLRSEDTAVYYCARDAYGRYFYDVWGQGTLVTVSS
T9 sequence (VL, as listed by the source limits assumed, chain 2 of 2): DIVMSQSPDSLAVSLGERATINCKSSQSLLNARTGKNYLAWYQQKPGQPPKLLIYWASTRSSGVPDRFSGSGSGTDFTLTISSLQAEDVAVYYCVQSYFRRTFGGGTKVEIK
Experimental: as §1, §2, §3

[10] = biological target: T10, ADI-48587; test: SPR Carterra avidity, yeast anti-ID
T10 construct: pH-dependent anti-CD3 antibody made in CHO cells
Experimental: as §1, §2, §3

[11] = biological target: T11, ADI-50024; test: SPR Carterra avidity, yeast anti-ID
T11 construct: anti-CD3 antibody made in CHO cells, captured by anti-human Fc
Experimental: as §1, §2, §3

[12] = biological target: T12, ADI-67450; test: SPR Carterra avidity, yeast anti-ID
T12 construct: anti-CD3 antibody made in CHO cells, captured by anti-human Fc
T12 sequence (VH, as listed by the source limits assumed, chain 1 of 2): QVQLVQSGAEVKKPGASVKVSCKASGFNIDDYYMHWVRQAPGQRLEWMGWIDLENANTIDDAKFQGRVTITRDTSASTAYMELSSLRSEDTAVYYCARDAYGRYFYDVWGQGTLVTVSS
Experimental: as §1, §2, §3

[13] = biological target: T13, ADI-74966; test: SPR Carterra avidity, yeast anti-ID
T13 construct: pH-dependent anti-CD3 antibody made in CHO cells
Experimental: as §1, §2, §3

[14] = biological target: T14, ADI-74965; test: SPR Carterra avidity, yeast anti-ID
T14 construct: pH-dependent anti-CD3 antibody made in CHO cells
T14 sequence (VH, as listed by the source, chain 1 of 2): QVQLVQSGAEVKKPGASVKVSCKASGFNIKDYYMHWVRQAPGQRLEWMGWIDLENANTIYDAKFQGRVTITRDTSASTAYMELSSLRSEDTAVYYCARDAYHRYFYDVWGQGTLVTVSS
T14 sequence (VL, as listed by the source, chain 2 of 2): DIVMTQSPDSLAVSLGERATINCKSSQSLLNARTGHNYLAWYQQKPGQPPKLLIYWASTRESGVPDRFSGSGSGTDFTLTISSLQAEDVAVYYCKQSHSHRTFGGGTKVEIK
Experimental: as §1, §2, §3

[15] = biological target: T15, ADI-67447; test: SPR Carterra avidity, yeast anti-ID
T15 construct: anti-CD3 antibody made in CHO cells, captured by anti-human Fc
T15 sequence (VH, as listed by the source limits assumed, chain 1 of 2): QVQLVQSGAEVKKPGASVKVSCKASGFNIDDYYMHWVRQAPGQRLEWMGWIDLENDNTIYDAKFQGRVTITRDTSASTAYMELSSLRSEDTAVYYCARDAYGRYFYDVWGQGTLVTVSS
Experimental: as §1, §2, §3

[16] = biological target: T16, ADI-76360; test: SPR Carterra avidity, yeast anti-ID
T16 construct: anti-CD3 antibody made in CHO cells, captured by anti-human Fc
Experimental: as §1, §2, §3

[17] = biological target: T17, ADI-26909; test: SPR Carterra avidity, yeast anti-ID
T17 construct: anti-CD3 antibody made in CHO cells, captured by anti-human Fc
Experimental: as §1, §2, §3

[18] = biological target: T18, ADI-26921 IgG; test: SPR Carterra avidity, yeast anti-ID
T18 construct: anti-CD3 IgG
T18 sequence (VH, as listed by the source limits assumed, chain 1 of 2): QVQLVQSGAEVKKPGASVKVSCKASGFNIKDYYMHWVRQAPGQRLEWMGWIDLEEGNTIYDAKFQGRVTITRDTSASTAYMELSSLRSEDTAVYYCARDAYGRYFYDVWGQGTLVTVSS
T18 sequence (VL, as listed by the source limits assumed, chain 2 of 2): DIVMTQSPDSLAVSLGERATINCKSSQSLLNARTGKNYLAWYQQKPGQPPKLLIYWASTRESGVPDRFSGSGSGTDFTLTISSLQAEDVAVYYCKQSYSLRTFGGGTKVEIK
Experimental: as §1, §2, §3

[19] = biological target: T19, ADI-26913 IgG; test: SPR Carterra avidity, yeast anti-ID
T19 construct: anti-CD3 IgG
Experimental: as §1, §2, §3

[20] = biological target: T20, ADI-76358; test: SPR Carterra avidity, yeast anti-ID
T20 construct: anti-CD3 antibody made in CHO cells, captured by anti-human Fc
T20 sequence (VH, as listed by the source, chain 1 of 2): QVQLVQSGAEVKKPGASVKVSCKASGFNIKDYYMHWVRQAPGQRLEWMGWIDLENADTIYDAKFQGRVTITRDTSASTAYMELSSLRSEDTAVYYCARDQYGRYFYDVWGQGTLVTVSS
Experimental: as §1, §2, §3

[21] = biological target: T21, ADI-26916 IgG; test: SPR Carterra avidity, yeast anti-ID
T21 construct: anti-CD3 IgG
T21 sequence (VH, as listed by the source, chain 1 of 2): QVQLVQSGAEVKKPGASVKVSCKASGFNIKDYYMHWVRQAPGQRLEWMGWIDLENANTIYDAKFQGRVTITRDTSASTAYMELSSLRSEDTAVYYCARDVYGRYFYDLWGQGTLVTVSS
Experimental: as §1, §2, §3

[22] = biological target: T22, ADI-70330; test: SPR Carterra avidity, yeast anti-ID
T22 construct: anti-CD3 antibody made in CHO cells, captured by anti-human Fc
Experimental: as §1, §2, §3

[23] = biological target: T23, ADI-48592; test: SPR Carterra avidity, yeast anti-ID
T23 construct: pH-dependent anti-CD3 antibody made in CHO cells
Experimental: as §1, §2, §3

[24] = biological target: T24, ADI-26906 IgG; test: SPR Carterra avidity, yeast anti-ID
T24 construct: anti-CD3 IgG
Experimental: as §1, §2, §3

[25] = biological target: T25, ADI-74968; test: SPR Carterra avidity, yeast anti-ID
T25 construct: pH-dependent anti-CD3 antibody made in CHO cells
Experimental: as §1, §2, §3

[26] = biological target: T26, ADI-76361; test: SPR Carterra avidity, yeast anti-ID
T26 construct: anti-CD3 antibody made in CHO cells, captured by anti-human Fc
T26 sequence (VH, as listed by the source, chain 1 of 2): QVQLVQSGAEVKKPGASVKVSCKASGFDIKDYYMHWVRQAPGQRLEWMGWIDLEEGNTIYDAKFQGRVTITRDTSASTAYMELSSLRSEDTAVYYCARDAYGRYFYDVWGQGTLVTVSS
Experimental: as §1, §2, §3

[27] = biological target: T27, ADI-70326; test: SPR Carterra avidity, yeast anti-ID
T27 construct: anti-CD3 antibody made in CHO cells, captured by anti-human Fc
T27 sequence (VH, as listed by the source limits assumed, chain 1 of 2): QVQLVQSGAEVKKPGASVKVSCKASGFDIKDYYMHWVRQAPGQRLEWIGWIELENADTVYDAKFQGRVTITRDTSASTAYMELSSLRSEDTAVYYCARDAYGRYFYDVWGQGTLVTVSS
Experimental: as §1, §2, §3

[28] = biological target: T28, ADI-48650; test: SPR Carterra avidity, yeast anti-ID
T28 construct: pH-dependent anti-CD3 antibody made in CHO cells
T28 sequence (VH, as listed by the source, chain 1 of 2): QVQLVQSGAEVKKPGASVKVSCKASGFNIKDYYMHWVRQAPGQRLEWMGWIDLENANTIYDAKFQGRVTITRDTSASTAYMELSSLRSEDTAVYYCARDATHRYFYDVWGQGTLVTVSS
T28 sequence (VL, as listed by the source, chain 2 of 2): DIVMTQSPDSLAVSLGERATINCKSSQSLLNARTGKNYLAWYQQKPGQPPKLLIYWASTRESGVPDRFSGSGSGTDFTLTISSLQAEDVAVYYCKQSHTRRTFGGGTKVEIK
Experimental: as §1, §2, §3

[29] = biological target: T29, ADI-76362; test: SPR Carterra avidity, yeast anti-ID
T29 construct: anti-CD3 antibody made in CHO cells, captured by anti-human Fc
T29 sequence (VH, as listed by the source, chain 1 of 2): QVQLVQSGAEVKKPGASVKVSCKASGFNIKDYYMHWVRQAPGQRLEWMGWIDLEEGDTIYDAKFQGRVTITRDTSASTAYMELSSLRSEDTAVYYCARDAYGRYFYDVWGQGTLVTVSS
Experimental: as §1, §2, §3

[30] = biological target: T30, CTL-62223; test: SPR Carterra avidity, yeast anti-ID
T30 construct: also called mosunetuzumab
T30 sequence (VH, as listed by the source, chain 1 of 2): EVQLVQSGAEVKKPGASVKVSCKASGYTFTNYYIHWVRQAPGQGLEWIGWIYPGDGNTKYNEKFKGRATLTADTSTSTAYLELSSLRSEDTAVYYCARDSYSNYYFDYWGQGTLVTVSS
T30 sequence (VL, as listed by the source, chain 2 of 2): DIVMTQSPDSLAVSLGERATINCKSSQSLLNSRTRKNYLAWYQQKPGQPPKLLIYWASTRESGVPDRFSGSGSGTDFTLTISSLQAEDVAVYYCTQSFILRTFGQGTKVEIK
Experimental: as §1, §2, §3

[31] = biological target: T31, ADI-26915; test: SPR Carterra avidity, yeast anti-ID
T31 construct: anti-CD3 antibody made in CHO cells, captured by anti-human Fc
T31 sequence (VH, as listed by the source, chain 1 of 2): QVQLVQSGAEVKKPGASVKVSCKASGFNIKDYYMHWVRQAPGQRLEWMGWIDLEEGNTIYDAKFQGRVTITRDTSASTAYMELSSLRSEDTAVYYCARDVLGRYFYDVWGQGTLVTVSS
Experimental: as §1, §2, §3

[32] = biological target: T32, ADI-26943; test: SPR Carterra avidity, yeast anti-ID, *koff limit
T32 construct: anti-CD3 antibody made in CHO cells, captured by anti-human Fc
Experimental: as §1, §2, §3

[33] = biological target: T33, ADI-26924; test: SPR Carterra avidity, yeast anti-ID, *koff limit
T33 construct: anti-CD3 antibody made in CHO cells, captured by anti-human Fc
Experimental: as §1, §2, §3

[34] = biological target: T34, ADI-76359; test: SPR Carterra avidity, yeast anti-ID, *koff limit
T34 construct: anti-CD3 antibody made in CHO cells, captured by anti-human Fc
T34 sequence (VH, as listed by the source, chain 1 of 2): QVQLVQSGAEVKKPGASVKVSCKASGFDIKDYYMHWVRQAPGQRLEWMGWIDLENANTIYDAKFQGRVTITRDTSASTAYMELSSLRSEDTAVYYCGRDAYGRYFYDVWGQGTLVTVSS
Experimental: as §1, §2, §3

[35] = biological target: T35, ADI-74967; test: SPR Carterra avidity, yeast anti-ID, *koff limit
T35 construct: pH-dependent anti-CD3 antibody made in CHO cells
Experimental: as §1, §2, §3

[36] = biological target: T36, ADI-26920 IgG; test: SPR Carterra avidity, yeast anti-ID, *koff limit
T36 construct: anti-CD3 IgG
T36 sequence (VH, as listed by the source limits assumed, chain 1 of 2): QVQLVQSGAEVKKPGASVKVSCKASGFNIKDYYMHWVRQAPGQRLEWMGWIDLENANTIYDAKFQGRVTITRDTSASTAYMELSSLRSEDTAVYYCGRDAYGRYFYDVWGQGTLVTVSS
Experimental: as §1, §2, §3

[37] = biological target: T37, ADI-26919; test: SPR Carterra avidity, yeast anti-ID, *koff limit
T37 construct: anti-CD3 antibody made in CHO cells, captured by anti-human Fc
Experimental: as §1, §2, §3

[38] = biological target: T38, ADI-22523 IgG; test: BLI; tip anti-ID IgG, solution ADI-22523 IgG
T38 construct: anti-CD3 IgG
Experimental: as §4

B1: ADI-30242 (antibody, V domains shown)
VH: QVQLVQSGAEVKKPGSSVKVSCKASGGTFSSYAISWVRQAPGQGLEWMGGIIPIFGTANYAQKFQGRVTITADESTSTAYMELSSLRSEDTAVYYCARGAPNYYGSGGYDDGWFDPWGQGTLVTVSS
VL: EIVLTQSPGTLSLSPGERATLSCRASQSVSSSYLAWYQQKPGQAPRLLIYGASSRATGIPDRFSGSGSGTDFTLTISRLEPEDFAVYYCQQFGRDPTFGGGTKVEIK
notes: anti-ID IgG
binding result [1]: no binding (tested: up to 200 nM)
binding result [2]: no binding (tested: up to 200 nM)
binding result [3]: no binding (tested: up to 200 nM)
binding result [4]: no binding (tested: up to 200 nM)
Kd [5]: 37.4 nM
Kd [6]: 33 nM
Kd [7]: 11 nM
Kd [8]: 22 nM
Kd [9]: 45 nM
Kd [10]: 43 nM
Kd [11]: 11 nM
Kd [12]: 56 nM
Kd [13]: 25 nM
Kd [14]: 45 nM
Kd [15]: 8.4 nM
Kd [16]: 11 nM
Kd [17]: 17 nM
Kd [18]: 21 nM
Kd [19]: 24 nM
Kd [20]: 42 nM
Kd [21]: 35 nM
Kd [22]: 40 nM
binding result [23]: binds
Kd [24]: 5.9 nM
Kd [25]: 36 nM
Kd [26]: 15 nM
Kd [27]: 45 nM
Kd [28]: 44 nM
Kd [29]: 27 nM
Kd [30]: 31 nM
Kd [31]: 56 nM
Kd [32]: 6.2 nM
Kd [33]: 5.3 nM
Kd [34]: 3.7 nM
Kd [35]: 5.6 nM
Kd [36]: 4.2 nM
Kd [37]: 3.5 nM
Kd [38]: 0.57 nM

Source: patent US20250019439A1 (Adimab, published 2025)
